Measurements as given in the supplement of paper PMC10567573.

B1: SMTNL2 (parent)
chain: ETAAGKGKGEARARLKRSQSFGVA
B2: P2RY14 (parent)
chain: KKIFKSHLKSSRNSTSVKKKSSRN

Variants of: B1
Assay: protein stability index of a GFP-peptide fusion (GPS, HEK-293T) (PSI 1-6); higher = more stable
Details: c terminus: a fixed tail appended
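Further: lentivirally expressed fusions sorted by FACS into six bins by GFP to DsRed ratio, PSI derived from sequencing read proportions per bin multiplied by bin number.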

Protein stability index: each site, then its substitutions
G5: W 4.06, P 4.52, Y 4.07, L 4.56, E 4.79, F 4.04, D 3.84, A 4.94, C 4.41, V 4.34, I 3.91, M 3.93, S 4.24, T 4.38, Q 4.39, N 4.58, H 4.77, K 4.8, R 4.42
A4: V 3.99, G 4.29, I 4.24, T 4.67, W 3.98, P 4.54, R 4.46, N 4.13, C 4.46, S 4.02, M 4.71, Q 4.78, K 4.81, Y 4.77, E 5.09, L 3.81, H 4.3
K6: C 2.43, N 4.32, M 3.87, P 4.59, W 3.79, I 4.54, R 4.39, E 5.05, A 4.62, S 4.62, D 4.85, F 4.56, T 4.78, V 4.23, Y 3.9, Q 3.41, L 4.04, H 4.53, G 3.58
G7: W 3.03, N 4.02, R 4.11, E 4.71, T 4.48, F 3.87, A 4.28, K 4.62, Q 4.46, S 4.22, D 4.75, L 4.26, Y 4.2, P 4.08, V 4.01, H 4.18, C 3.48, M 3.73, I 4.17
R14: A 3.79, I 4.27, Q 4.66, Y 4.09, K 4.85, T 4.4, P 5.19, L 4.29, M 4.27, N 4.68, F 4.18, E 4.88, G 4.9, V 4.25, W 4.03, C 4.53, H 4.69, S 4.41, D 4.82
A13: E 4.95, L 4.11, H 4.83, P 4.7, Y 4.3, Q 4.38, I 4.54, F 3.9, M 4.05, T 4.61, S 4.67, W 3.67, K 4.86, N 4.55, R 4.05, D 4.4, G 4.78, C 4.38, V 3.82
E1: L 4.18, M 3.88, S 4.48, W 3.63, R 3.82, V 3.33, C 4.05, D 4.49, F 3.21, N 4.35, G 4.54, T 3.72, P 4.09, Y 3, K 3.82, I 3.58, A 3.91, Q 4.03, H 3.94
G9: E 4.96, M 3.95, A 4.12, H 4.58, D 4.53, W 3.27, V 4.26, T 3.6, R 4.27, S 5.08, C 4.21, L 3.6, Q 4.51, F 4.12, Y 4.42, K 4.21, N 4.56, I 4.37, P 4.43
K16: A 4, F 3.89, S 4.35, G 4.67, L 3.62, Y 3.74, N 4.46, H 4, I 3.35, Q 4.21, W 2.59, C 3.77, D 4.62, M 3.83, T 4.39, R 4.4, V 3.9, E 4.57, P 4.03
A11: P 4.46, F 3.71, E 4.69, Q 4.19, H 4.49, G 4.61, D 4.8, L 4.5, V 4.02, R 4.73, K 4.74, I 3.69, W 3.65, Y 4.06, N 4.56, C 3.96, S 4.58, T 4.62, M 4.19
R12: G 5.1, M 3.94, N 3.82, Q 4.61, V 4.83, H 4.45, T 3.76, A 4.76, I 3.95, Y 4.28, L 4.24, C 4.38, D 4.79, K 4.88, F 3.9, W 3.14, E 5.03, S 4.92, P 4.67
K8: P 4.54, W 3.87, F 4.29, R 4.38, G 3.96, A 5.13, S 4.43, L 4, V 4.62, C 4.17, N 4.8, H 4.44, Y 4.2, E 4.89, D 5.01, Q 5.13, T 4.08, I 4.12, M 4.66
E10: L 3.79, H 4.44, A 4.33, C 3.51, D 4.38, W 3.4, K 4.29, N 4.21, F 3.7, T 4.38, S 4.46, I 3.96, R 4.53, P 4.27, V 4.27, M 4.44, G 4.49, Q 3.9, Y 3.35
L15: C 4.24, R 4.49, W 4.29, N 4.89, D 4.03, T 3.83, P 5.01, E 4.7, G 4.49, F 3.69, K 4.77, H 4.44, S 4.76, I 4.51, M 3.95, V 4.76, Y 4.09, A 4.46, Q 4.91
T2: C 4.53, A 4.74, F 4.46, P 4.92, W 3.07, K 4.58, D 5.39, Y 3.83, Q 4.55, I 4.11, G 4.71, H 4.46, E 4.83, V 4.79, L 4.36, S 4.66, N 4.86, M 4.65
A3: V 4.33, M 4.5, D 4.72, W 4.27, N 4.74, S 4.28, I 4.13, T 4.65, Y 3.74, K 4.38, L 4.8, G 4.54, C 3.86, H 4.31, F 4.28, R 4.1, E 4.94, P 4.88, Q 4.56

Variants of: B2
Assay: as above
Details: c terminus: a fixed tail appended

Protein stability index: each site, then its substitutions
K18: S 4.21
R12: C 3.6
F4: D 4.6, W 3.96
V17: G 3.73, K 4.02, N 4.21
K5: G 4.44, I 3.55, R 3.67, W 3.45
K2: S 4.37
K9: A 4.07
N24: D 4.29, A 4.14
H7: V 3.93, Q 3.67
S10: M 4.01, T 4.17
R23: L 3.51, Y 4.07, P 3.73
K19: N 3.98
S11: K 3.89, Y 3.37, P 4.3
S6: L 3.18
I3: N 4.63, S 4.6, E 5.07
S14: M 3.98
L8: W 3.95, K 4.29
